Laboratory results as given in PMC9710096.

Tests used:
Test in all cases: SEC
[1] = molecular target: SARS-CoV-2 Delta Spike protein (B.1.617.2), tagless (SARS-CoV-2 | bacteriophage T4 (from the name T4 fibritin)) (UniProt P0DTC2)
[2] = molecular target: SARS-CoV-2 Gamma Spike protein (P.1), tagless (SARS-CoV-2 | bacteriophage T4 (from the name T4 fibritin)) (UniProt P0DTC2)
[3] = molecular target: SARS-CoV-2 Beta Spike protein (B.1.351), tagless (SARS-CoV-2 | bacteriophage T4 (from the name T4 fibritin)) (UniProt P0DTC2)
[4] = molecular target: SARS-CoV-2 D614G Spike protein, tagless (SARS-CoV-2 | bacteriophage T4 (from the name T4 fibritin)) (UniProt P0DTC2)

“SARS-CoV-2 Delta Spike protein (B.1.617.2), tagless (from UniProt P0DTC2 1-1208) (natural protein)” was tested. Which stoichiometry N [1] did it give?
The stoichiometry N was 3.

For “SARS-CoV-2 Gamma Spike protein (P.1), tagless (from UniProt P0DTC2 1-1208) (natural protein)”, which stoichiometry N [2] is on record?
Its stoichiometry N is 3.

With “SARS-CoV-2 Beta Spike protein (B.1.351), tagless (from UniProt P0DTC2 1-1208) (natural protein)” as the substance, how does the stoichiometry N [3] read?
Its stoichiometry N is 3.

For “SARS-CoV-2 D614G Spike protein, tagless (from UniProt P0DTC2 1-1208) (natural protein)”, which stoichiometry N [4] is on record?
The stoichiometry N was 3.
